Test results as given in patent publication US20160031999A1 (CSL, published 2016).
Where a chain is given by its changes, count along the chain named. Each block holds one binder with its values, some of them ahead of it.

What was measured:
[1] = biological target: T1, human IL-11Rα (form used in the assay not stated) (human, UniProt Q14626 23-363, limits assumed); experiment: Biacore, pH 8.5, 37°C
T1 construct: also called hIL-11R; hIL-11Rα
T1 sequence: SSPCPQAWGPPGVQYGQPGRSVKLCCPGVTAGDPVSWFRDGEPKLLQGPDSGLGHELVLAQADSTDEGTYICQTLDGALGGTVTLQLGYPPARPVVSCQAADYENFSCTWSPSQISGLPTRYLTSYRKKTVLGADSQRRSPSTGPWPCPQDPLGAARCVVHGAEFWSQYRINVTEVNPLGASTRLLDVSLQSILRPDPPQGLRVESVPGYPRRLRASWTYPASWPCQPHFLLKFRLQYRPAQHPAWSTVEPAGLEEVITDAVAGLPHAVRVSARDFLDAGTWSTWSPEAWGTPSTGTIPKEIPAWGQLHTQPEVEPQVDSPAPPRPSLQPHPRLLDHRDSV

[2] = biological target: T2, human IL-11Rα on transfected cells (human, UniProt Q14626 23-422); experiment: cell-based or functional assay
T2 sequence: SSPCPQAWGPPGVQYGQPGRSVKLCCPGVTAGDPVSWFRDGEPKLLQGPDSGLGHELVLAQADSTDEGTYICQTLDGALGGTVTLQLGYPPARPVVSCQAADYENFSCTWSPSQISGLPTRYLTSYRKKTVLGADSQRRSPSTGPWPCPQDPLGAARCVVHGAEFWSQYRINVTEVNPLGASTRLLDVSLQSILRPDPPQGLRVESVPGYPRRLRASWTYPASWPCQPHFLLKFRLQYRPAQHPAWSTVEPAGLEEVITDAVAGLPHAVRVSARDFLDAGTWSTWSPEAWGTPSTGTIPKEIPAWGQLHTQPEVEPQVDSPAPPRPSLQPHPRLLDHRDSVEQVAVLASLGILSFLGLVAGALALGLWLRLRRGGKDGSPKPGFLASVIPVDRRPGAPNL

B1: hu8E2-TS-14 (antibody, V domains shown)
VH: EVQLLESGGGLVQPGGSLRLSCAASGFTFSWYSMTWVRQAPGKGLEWVSSIVPSGGHTQYADSVKGRFTISRDNSKNTLYLQMNSLRAEDTAVYYCAKGPGWGSFDLWGRGTLVTVSS
VL: DIQMTQSPSSLSASVGDRVTITCQASQDINNYLNWYQQKPGKAPKLLIYDASNLQTGVPSRFSGSGSGTDFTFTISSLQPEDIATYYCQQHDNQSPTFGPGTKVDIK
Kd [1]: 0.342 nM
Fold increase in potency relative to 8E2 [2]: 1.6 fold
IC50 [2]: 0.52 µg/mL

B2: hu8E2-TS-32 (antibody, V domains shown)
VH: B1 VH
VL: B1 VL with Q89T, H91W, D92E, N93T
Kd [1]: 9.56 nM
Fold increase in potency relative to 8E2 [2]: 2.4 fold
IC50 [2]: 0.41 µg/mL

B3: hu8E2-TS-7 (antibody, V domains shown)
VH: B1 VH
VL: B1 VL with D92E
Kd [1]: 0.108 nM
Fold increase in potency relative to 8E2 [2]: 3.3 fold
IC50 [2]: 0.63 µg/mL

B5: hu8E2-TS-58 (antibody, V domains shown)
VH: B1 VH
VL: B1 VL with H91Y, D92E, N93T, S95Q, T97F
Kd [1]: 0.957 nM
Fold increase in potency relative to 8E2 [2]: 6 fold
IC50 [2]: 0.23 µg/mL

B6: hu8E2-TS-17 (antibody, V domains shown)
VH: B1 VH
VL: B1 VL with Q89S, H91F, D92E, N93S
Kd [1]: 0.39 nM
Fold increase in potency relative to 8E2 [2]: 2.3 fold
IC50 [2]: 0.35 µg/mL

B7: hu8E2-TS-64 (antibody, V domains shown)
VH: B1 VH
VL: B1 VL with H91Y, D92E, N93S, S95W, T97Q
Kd [1]: 0.636 nM
Fold increase in potency relative to 8E2 [2]: 5.4 fold
IC50 [2]: 0.26 µg/mL

B8: hu8E2-TS-9 (antibody, V domains shown)
VH: B1 VH
VL: B1 VL with H91A, D92E, N93E
Kd [1]: 2.29 nM
Fold increase in potency relative to 8E2 [2]: 3.1 fold
IC50 [2]: 0.68 µg/mL

B11: hu8E2-TS-57 (antibody, V domains shown)
VH: B1 VH
VL: B1 VL with H91Y, D92E, N93T, S95M, T97L
Kd [1]: 0.658 nM
Fold increase in potency relative to 8E2 [2]: 3.9 fold
IC50 [2]: 0.25 µg/mL

B13: hu8E2-TS-6 (antibody, V domains shown)
VH: B1 VH
VL: B1 VL with Q89E, H91F, D92E, N93S
Kd [1]: 0.289 nM
Fold increase in potency relative to 8E2 [2]: 1.4 fold
IC50 [2]: 0.41 µg/mL

B16: hu8E2-TS-66 (antibody, V domains shown)
VH: B1 VH with S30A, Y32W, M34I, T35A
VL: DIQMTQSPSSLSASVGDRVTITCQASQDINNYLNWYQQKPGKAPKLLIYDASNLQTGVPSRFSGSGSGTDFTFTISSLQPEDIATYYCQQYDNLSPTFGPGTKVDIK
Kd [1]: 7.46 nM
Fold increase in potency relative to 8E2 [2]: 0.5 fold
IC50 [2]: 2.84 µg/mL

B18: hu8E2-TS-2 (antibody, V domains shown)
VH: B1 VH
VL: B1 VL with H91A, D92E, N93D
Kd [1]: 0.529 nM
Fold increase in potency relative to 8E2 [2]: 7.9 fold
IC50 [2]: 0.26 µg/mL

B19: hu8E2-TS-76 (antibody, V domains shown)
VH: B1 VH with S30W, W31R, Y32W, M34I
VL: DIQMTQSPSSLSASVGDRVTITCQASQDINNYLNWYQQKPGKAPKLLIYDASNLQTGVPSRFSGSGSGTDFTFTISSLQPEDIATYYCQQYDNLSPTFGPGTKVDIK
Kd [1]: 2.73 nM
Fold increase in potency relative to 8E2 [2]: 3.4 fold
IC50 [2]: 0.32 µg/mL

B20: hu8E2-TS-55 (antibody, V domains shown)
VH: B1 VH
VL: B1 VL with H91Y, D92E, N93T, S95T, T97A
Kd [1]: 0.483 nM
Fold increase in potency relative to 8E2 [2]: 4.8 fold
IC50 [2]: 0.21 µg/mL

B23: hu8E2-TS-22 (antibody, V domains shown)
VH: B1 VH
VL: B1 VL with H91F, D92E, N93T
Kd [1]: 0.838 nM
Fold increase in potency relative to 8E2 [2]: 2 fold
IC50 [2]: 0.4 µg/mL

B26: hu8E2-TS-4 (antibody, V domains shown)
VH: B1 VH
VL: B1 VL with D92E, N93F
Kd [1]: 0.295 nM
Fold increase in potency relative to 8E2 [2]: 6.6 fold
IC50 [2]: 0.31 µg/mL

B27: hu8E2-TS-51 (antibody, V domains shown)
VH: B1 VH
VL: B1 VL with H91Y, D92E, N93S, S95W, T97F
Kd [1]: 0.455 nM
Fold increase in potency relative to 8E2 [2]: 3.6 fold
IC50 [2]: 0.28 µg/mL

B28: hu8E2-TS-71 (antibody, V domains shown)
VH: B1 VH with S30W, W31R, Y32W, M34T
VL: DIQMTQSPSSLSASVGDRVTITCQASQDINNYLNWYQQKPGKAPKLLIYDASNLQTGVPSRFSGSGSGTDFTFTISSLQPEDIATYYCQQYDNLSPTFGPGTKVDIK
Kd [1]: 2.49 nM
Fold increase in potency relative to 8E2 [2]: 3.8 fold
IC50 [2]: 0.29 µg/mL

B29: hu8E2-TS-20 (antibody, V domains shown)
VH: B1 VH
VL: B1 VL with H91N, D92E, N93S
Kd [1]: 0.284 nM
Fold increase in potency relative to 8E2 [2]: 0.6 fold
IC50 [2]: 1.3 µg/mL

B30: hu8E2-TS-63 (antibody, V domains shown)
VH: B1 VH
VL: B1 VL with H91Y, N93T, S95Q, T97N
Kd [1]: 0.642 nM
Fold increase in potency relative to 8E2 [2]: 5.1 fold
IC50 [2]: 0.27 µg/mL

B31: hu8E2-TS-29 (antibody, V domains shown)
VH: B1 VH
VL: B1 VL with H91S, D92E, N93E
Kd [1]: 1.06 nM
Fold increase in potency relative to 8E2 [2]: 2.5 fold
IC50 [2]: 0.33 µg/mL

B32: hu8E2-TS-69 (antibody, V domains shown)
VH: B1 VH with S30G, Y32W, M34V
VL: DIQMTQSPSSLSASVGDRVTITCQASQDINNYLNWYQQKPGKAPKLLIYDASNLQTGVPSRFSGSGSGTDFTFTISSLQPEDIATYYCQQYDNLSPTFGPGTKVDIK
Kd [1]: 3.56 nM
Fold increase in potency relative to 8E2 [2]: 0.9 fold
IC50 [2]: 1.46 µg/mL

B33: hu8E2-TS-21 (antibody, V domains shown)
VH: B1 VH
VL: B1 VL with H91S, D92E, N93S
Kd [1]: 0.23 nM
Fold increase in potency relative to 8E2 [2]: 2.7 fold
IC50 [2]: 0.31 µg/mL

B34: hu8E2-TS-49 (antibody, V domains shown)
VH: B1 VH
VL: B1 VL with H91Y, D92E, N93S, S95A, T97E
Kd [1]: 1.5 nM
Fold increase in potency relative to 8E2 [2]: 5.2 fold
IC50 [2]: 0.19 µg/mL

B35: hu8E2-TS-79 (antibody, V domains shown)
VH: B1 VH with S30A, Y32F, M34V
VL: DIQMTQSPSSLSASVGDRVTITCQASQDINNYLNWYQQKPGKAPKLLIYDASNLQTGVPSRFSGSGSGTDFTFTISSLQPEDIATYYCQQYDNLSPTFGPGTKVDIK
Kd [1]: 2.13 nM
Fold increase in potency relative to 8E2 [2]: 5.3 fold
IC50 [2]: 0.21 µg/mL

Other lines, results leading:

Kd [1]: 4.73 nM
Fold increase in potency relative to 8E2 [2]: 1.3 fold
IC50 [2]: 0.34 µg/mL
B4: hu8E2-TS-91 (antibody, V domains shown)
VH: B1 VH with S30G, Y32W, M34L
VL: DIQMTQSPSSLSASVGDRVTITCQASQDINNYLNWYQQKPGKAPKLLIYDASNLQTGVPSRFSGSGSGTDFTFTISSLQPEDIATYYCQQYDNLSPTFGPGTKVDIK

Kd [1]: 0.785 nM
Fold increase in potency relative to 8E2 [2]: 2.1 fold
IC50 [2]: 0.19 µg/mL
B9: hu8E2-TS-101 (antibody, V domains shown)
VH: B1 VH with S54W, G56D, H57L
VL: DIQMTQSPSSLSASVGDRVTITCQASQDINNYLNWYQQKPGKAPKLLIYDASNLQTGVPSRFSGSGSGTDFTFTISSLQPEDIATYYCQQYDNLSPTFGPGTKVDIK

Kd [1]: 0.995 nM
Fold increase in potency relative to 8E2 [2]: 5.2 fold
IC50 [2]: 0.28 µg/mL
B10: hu8E2-TS-104 (antibody, V domains shown)
VH: B1 VH with S54W, G56T, H57I
VL: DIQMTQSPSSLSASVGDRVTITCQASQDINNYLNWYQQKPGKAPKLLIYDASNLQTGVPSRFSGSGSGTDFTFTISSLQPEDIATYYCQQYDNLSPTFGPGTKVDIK

Kd [1]: 1.93 nM
Fold increase in potency relative to 8E2 [2]: 12.7 fold
IC50 [2]: 0.12 µg/mL
B12: hu8E2-TS-108 (antibody, V domains shown)
VH: B1 VH with S54W, G56T, H57L
VL: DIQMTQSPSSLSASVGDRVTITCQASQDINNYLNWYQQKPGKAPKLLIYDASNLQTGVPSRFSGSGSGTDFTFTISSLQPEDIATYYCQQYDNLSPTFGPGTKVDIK

Kd [1]: 2.25 nM
Fold increase in potency relative to 8E2 [2]: 3 fold
IC50 [2]: 0.36 µg/mL
B14: hu8E2-TS-88 (antibody, V domains shown)
VH: B1 VH with S30W, W31R, Y32W, M34T
VL: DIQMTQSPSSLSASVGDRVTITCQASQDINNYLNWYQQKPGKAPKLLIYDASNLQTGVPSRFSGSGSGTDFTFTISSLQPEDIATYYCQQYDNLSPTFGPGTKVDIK

Kd [1]: 1.29 nM
Fold increase in potency relative to 8E2 [2]: 7.4 fold
IC50 [2]: 0.2 µg/mL
B15: hu8E2-TS-107 (antibody, V domains shown)
VH: B1 VH with S54W, G56D, H57F
VL: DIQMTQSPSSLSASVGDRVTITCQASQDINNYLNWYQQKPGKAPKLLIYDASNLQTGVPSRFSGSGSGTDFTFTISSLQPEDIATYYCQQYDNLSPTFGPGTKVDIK

Kd [1]: 3.2 nM
Fold increase in potency relative to 8E2 [2]: 2.3 fold
IC50 [2]: 0.18 µg/mL
B17: hu8E2-TS-92 (antibody, V domains shown)
VH: B1 VH with Y32W, M34I
VL: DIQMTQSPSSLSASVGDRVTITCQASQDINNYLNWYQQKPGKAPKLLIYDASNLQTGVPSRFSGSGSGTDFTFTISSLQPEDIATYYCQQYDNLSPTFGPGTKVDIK

Kd [1]: 4.5 nM
Fold increase in potency relative to 8E2 [2]: 1.4 fold
IC50 [2]: 0.12 µg/mL
B21: hu8E2-TS-89 (antibody, V domains shown)
VH: B1 VH with S30W, W31R, Y32W, M34I
VL: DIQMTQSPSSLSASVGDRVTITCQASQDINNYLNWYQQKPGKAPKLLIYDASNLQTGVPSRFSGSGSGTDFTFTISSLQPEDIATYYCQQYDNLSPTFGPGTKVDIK

Kd [1]: 0.497 nM
Fold increase in potency relative to 8E2 [2]: 4.5 fold
IC50 [2]: 0.33 µg/mL
B22: hu8E2-TS-103 (antibody, V domains shown)
VH: B1 VH with S54Y, G56D, H57L
VL: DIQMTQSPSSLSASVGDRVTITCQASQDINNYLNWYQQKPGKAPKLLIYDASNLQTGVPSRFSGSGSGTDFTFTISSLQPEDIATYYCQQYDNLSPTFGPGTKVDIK

Kd [1]: 1.22 nM
Fold increase in potency relative to 8E2 [2]: 1.6 fold
IC50 [2]: 0.26 µg/mL
B24: hu8E2-TS-97 (antibody, V domains shown)
VH: B1 VH with S54W, G55A, G56D, H57Y
VL: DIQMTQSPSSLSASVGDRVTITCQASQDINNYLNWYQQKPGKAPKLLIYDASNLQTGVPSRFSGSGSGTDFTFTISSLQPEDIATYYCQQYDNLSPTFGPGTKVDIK

Kd [1]: 2.05 nM
Fold increase in potency relative to 8E2 [2]: 4.3 fold
IC50 [2]: 0.26 µg/mL
B25: hu8E2-TS-82 (antibody, V domains shown)
VH: B1 VH with S30W, W31R, Y32W, M34V
VL: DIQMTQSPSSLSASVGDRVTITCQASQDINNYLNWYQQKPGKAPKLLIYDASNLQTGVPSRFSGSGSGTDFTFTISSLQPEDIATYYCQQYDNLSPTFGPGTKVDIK
